Experimental findings from article PMC4191604 (Journal of Medicinal Chemistry, 2014) are described below.

What is called Kd is the constant that tells how readily two partners part at equilibrium.

Test in all cases: SPR
One assay deals with T1, GBP1 mutant R48A (human, UniProt P32455 1-592, R48A).
T1 sequence (looked up): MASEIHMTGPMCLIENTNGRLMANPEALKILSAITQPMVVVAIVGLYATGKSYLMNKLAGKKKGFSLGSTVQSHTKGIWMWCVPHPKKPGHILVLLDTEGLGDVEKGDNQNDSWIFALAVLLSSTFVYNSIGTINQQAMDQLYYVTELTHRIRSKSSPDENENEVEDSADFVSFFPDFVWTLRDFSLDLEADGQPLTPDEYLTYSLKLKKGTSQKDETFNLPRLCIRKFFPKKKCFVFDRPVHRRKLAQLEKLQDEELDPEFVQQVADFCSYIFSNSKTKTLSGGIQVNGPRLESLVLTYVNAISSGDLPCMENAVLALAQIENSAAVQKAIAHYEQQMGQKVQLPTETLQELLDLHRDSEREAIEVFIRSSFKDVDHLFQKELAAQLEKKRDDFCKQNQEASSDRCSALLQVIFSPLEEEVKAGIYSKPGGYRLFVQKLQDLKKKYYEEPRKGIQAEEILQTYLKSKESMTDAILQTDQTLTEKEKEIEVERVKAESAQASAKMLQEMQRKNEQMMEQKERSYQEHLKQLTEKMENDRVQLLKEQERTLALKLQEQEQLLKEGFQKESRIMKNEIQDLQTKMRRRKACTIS

A further assay concerns the target T2, GBP1 mutant K51A (human, UniProt P32455 1-592, K51A).
T2 sequence (looked up): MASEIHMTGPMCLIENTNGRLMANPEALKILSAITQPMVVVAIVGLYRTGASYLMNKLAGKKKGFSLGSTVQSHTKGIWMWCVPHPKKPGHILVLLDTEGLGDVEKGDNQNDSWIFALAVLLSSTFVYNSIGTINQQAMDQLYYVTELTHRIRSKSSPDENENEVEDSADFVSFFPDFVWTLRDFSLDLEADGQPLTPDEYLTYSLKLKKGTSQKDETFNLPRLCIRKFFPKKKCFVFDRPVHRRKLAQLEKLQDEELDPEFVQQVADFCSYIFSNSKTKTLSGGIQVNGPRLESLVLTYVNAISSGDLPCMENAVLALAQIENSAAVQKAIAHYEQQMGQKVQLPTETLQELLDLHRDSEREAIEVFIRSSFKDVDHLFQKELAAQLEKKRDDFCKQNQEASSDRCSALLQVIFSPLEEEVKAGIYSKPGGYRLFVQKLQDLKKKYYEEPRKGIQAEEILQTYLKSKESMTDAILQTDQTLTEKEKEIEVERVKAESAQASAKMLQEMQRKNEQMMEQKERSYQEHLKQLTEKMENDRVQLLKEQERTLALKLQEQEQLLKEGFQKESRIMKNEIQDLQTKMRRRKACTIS

A further assay has as its target T3, GBP1 mutant D184A (human, UniProt P32455 1-592, D184A).
T3 sequence (looked up): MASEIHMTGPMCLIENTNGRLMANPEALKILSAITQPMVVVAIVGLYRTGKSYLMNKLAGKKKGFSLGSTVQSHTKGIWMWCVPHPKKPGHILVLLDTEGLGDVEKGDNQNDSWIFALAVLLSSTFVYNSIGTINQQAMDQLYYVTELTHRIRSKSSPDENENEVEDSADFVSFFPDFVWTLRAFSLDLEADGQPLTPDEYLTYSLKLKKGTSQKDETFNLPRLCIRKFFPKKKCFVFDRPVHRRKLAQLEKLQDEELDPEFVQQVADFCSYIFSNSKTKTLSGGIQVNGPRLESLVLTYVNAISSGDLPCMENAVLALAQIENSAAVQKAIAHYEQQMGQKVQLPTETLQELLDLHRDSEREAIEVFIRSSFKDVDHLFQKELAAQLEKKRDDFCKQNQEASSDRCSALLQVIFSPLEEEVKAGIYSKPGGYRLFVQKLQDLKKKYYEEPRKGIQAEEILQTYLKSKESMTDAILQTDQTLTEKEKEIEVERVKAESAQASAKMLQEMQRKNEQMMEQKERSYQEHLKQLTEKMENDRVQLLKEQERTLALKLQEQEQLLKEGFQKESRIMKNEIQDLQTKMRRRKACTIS

The target of the next assay is T4, GBP1 mutant Q72A (human, UniProt P32455 1-592, Q72A).
T4 sequence (looked up): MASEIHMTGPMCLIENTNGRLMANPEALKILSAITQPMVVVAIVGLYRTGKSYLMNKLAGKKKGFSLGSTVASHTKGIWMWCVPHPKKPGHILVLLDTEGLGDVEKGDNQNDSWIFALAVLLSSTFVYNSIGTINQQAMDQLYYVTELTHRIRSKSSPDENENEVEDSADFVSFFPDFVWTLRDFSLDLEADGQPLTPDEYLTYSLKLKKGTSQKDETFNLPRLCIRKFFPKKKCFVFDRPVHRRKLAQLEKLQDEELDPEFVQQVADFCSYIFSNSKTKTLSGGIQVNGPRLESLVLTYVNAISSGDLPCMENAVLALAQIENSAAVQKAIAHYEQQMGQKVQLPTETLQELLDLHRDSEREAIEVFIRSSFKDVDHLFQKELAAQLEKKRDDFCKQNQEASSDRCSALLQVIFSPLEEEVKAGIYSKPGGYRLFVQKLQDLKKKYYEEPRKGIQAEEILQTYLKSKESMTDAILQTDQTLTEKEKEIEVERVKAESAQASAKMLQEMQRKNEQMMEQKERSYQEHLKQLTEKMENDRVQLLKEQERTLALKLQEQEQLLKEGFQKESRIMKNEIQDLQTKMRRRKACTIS

B1: PIM1 (recombinant) (enzyme)
chain: not shown
On to B1, for which the Kd in the assay with GBP1 mutant R48A was 21 ± 0.1 nM; with GBP1 mutant K51A, 26 ± 11 nM; with GBP1 mutant D184A, 77 ± 3 nM; with GBP1 mutant Q72A it was 161 ± 17 nM.
